T1: mouse IL-12 (mouse, UniProt P43432 23-335; P43431 23-215)
T1 sequence 1: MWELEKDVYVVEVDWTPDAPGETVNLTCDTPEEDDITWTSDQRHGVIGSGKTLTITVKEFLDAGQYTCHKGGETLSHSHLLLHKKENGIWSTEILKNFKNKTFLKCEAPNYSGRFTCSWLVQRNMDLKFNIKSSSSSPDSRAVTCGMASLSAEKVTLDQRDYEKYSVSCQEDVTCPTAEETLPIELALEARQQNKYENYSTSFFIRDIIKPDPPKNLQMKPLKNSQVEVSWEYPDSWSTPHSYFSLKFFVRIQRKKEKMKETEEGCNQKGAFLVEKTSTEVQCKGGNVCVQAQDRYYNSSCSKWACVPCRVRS
T1 sequence 2: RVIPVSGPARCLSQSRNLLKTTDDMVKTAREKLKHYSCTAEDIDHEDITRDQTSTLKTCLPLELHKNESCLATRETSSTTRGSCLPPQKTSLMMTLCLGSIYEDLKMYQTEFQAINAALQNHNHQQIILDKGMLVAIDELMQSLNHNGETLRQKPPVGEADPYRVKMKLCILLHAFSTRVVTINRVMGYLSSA

T2: rabbit IL-23 (rabbit)
T2 chain 1: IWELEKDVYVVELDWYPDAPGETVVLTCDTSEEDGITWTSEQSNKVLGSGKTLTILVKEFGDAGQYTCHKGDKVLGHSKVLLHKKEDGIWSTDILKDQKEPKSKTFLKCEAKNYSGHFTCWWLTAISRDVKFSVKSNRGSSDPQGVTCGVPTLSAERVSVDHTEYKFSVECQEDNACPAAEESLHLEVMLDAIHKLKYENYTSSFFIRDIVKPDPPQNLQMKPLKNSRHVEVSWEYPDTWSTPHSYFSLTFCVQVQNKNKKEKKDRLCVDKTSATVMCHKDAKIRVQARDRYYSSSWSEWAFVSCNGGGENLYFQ
T2 chain 2: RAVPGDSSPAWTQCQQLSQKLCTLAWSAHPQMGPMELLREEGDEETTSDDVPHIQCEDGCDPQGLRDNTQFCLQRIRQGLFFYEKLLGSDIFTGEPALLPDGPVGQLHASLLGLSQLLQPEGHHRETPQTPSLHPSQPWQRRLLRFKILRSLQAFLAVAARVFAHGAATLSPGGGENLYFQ

T3: rat IL-12 (rat, UniProt P43432 23-335; Q9R103 23-215, limits assumed)
T3 chain 1: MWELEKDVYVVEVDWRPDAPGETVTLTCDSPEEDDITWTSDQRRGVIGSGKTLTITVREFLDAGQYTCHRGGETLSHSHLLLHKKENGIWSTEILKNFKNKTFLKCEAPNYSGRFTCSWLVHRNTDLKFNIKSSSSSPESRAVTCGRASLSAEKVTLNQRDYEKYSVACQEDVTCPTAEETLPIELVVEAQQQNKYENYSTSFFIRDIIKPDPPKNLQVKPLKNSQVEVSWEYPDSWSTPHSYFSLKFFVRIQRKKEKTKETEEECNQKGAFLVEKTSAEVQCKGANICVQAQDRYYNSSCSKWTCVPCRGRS
T3 chain 2: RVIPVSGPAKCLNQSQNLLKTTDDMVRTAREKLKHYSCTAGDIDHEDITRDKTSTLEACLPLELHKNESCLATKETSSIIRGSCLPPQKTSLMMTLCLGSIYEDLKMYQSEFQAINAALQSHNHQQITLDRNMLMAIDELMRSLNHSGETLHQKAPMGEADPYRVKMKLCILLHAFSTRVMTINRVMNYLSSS

T4: rabbit IL-12 (rabbit)
T4 chain 1: T2 chain 1
T4 chain 2: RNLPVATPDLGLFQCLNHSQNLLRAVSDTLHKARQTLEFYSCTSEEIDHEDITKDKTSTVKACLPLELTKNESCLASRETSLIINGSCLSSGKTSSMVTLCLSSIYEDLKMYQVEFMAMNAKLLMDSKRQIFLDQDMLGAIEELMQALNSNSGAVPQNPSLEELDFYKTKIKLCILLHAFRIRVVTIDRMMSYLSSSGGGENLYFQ

T5: mouse IL-23 (mouse, UniProt P43432 23-335; Q9EQ14 22-196)
T5 sequence 1: T1 sequence 1
T5 sequence 2: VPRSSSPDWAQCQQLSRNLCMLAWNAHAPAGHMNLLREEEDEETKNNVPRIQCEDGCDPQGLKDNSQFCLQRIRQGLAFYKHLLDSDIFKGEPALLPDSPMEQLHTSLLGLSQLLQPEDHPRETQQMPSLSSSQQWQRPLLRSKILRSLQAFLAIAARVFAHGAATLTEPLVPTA

T6: human IL-23 (human, UniProt P29460 23-328; Q9NPF7 20-189)
T6 sequence 1: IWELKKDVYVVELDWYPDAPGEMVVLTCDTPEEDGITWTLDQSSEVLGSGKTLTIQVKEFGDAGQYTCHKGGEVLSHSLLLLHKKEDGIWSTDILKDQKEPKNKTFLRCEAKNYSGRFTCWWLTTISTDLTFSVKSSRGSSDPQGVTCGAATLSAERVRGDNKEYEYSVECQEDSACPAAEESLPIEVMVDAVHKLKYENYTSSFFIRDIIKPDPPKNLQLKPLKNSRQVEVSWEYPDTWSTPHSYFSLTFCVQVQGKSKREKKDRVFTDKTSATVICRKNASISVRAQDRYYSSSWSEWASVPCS
T6 sequence 2: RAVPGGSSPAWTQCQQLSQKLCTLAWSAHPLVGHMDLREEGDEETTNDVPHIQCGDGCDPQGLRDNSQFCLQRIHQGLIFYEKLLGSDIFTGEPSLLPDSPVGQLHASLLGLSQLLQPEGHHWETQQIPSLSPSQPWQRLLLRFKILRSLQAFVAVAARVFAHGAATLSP

T7: human IL-12 (human, UniProt P29460 23-328; P29459 23-219)
T7 sequence 1: T6 sequence 1
T7 sequence 2: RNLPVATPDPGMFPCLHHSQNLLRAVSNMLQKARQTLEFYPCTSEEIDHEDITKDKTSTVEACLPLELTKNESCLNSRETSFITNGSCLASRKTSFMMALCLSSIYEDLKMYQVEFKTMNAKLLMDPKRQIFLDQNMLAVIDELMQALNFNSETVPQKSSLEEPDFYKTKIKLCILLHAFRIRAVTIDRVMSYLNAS

B1: p40TL1A-0033 (bispecific antibody, human IgG1, kappa)
chain 1: not shown
chain 2: QVQLVQSGAEVKKPGASVKVSCKASGYDYTYYGISWVRQAPGQGLEWMGWISTYNTGTHYAPSLQGRVTMTTDTSTSTAYMELRSLRSDDTAVYYCARESYYGSGAFRGGMDVWGQGTTVTVSSASTKGPSVFPLAPSSKSTSGGTAALGCLVKDYFPEPVTVSWNSGALTSGVHTFPAVLQSSGLYSLSSVVTVPSSSLGTQTYICNVNHKPSNTKVDKKVEPKSC
heavy: EVQLVQSGAEVKKPGESLKISCKGSGYSFTTYWLGWVRQMPGKGLDWIGIMSPVDSDIRYSPSFQGQVTMSVDKSITTAYLQWNSLKASDTAMYYCARRRPGQGYFDFWGQGTLVTVSSASTKGPSVFPLAPSSKSTSGGTAALGCLVKDYFPEPVTVSWNSGALTSGVHTFPAVLQSSGLYSLSSVVTVPSSSLGTQTYICNVNHKPSNTKVDKKVEPKSCDKTHTCPPCPAPEAAGAPSVFLFPPKPKDTLMISRTPEVTCVVVDVSHEDPEVKFNWYVDGVEVHNAKTKPREEQYNSTYRVVSVLTVLHQDWLNGKEYKCKVSNKALPAPIEKTISKAKGQPREPQVCTLPPSREEMTKNQVSLWCLVKGFYPSDIAVEWESNGQPENNYKTTPPVLDSDGSFFLYSKLTVDKSRWQQGNVFSCSVLHEALHSHYTQKSLSLSPGK
light: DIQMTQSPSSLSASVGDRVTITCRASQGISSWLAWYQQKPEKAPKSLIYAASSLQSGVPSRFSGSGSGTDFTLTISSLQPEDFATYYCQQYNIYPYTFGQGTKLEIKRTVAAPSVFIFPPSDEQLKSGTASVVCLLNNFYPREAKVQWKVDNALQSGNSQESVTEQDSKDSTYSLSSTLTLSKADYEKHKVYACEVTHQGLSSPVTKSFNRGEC
notes: KiH modified-Fd bispecific: TL1A VL-CL-Fc (hole), TL1A mFd, p40 HC (knob), p40 LC; LS
B2: p40TL1A-0033 bispecific antibody (bispecific antibody, human IgG1, kappa)
heavy: B1 heavy
light: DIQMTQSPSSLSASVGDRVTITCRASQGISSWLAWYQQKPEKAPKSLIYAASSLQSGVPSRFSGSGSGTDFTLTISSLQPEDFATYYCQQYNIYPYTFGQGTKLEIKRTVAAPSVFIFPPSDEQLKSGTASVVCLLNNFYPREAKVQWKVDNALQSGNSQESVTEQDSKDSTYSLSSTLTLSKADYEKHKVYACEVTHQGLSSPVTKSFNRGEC
chain 1: not shown
chain 2: B1 chain 2
notes: Single cell KiH, modified Fd format; IgG1 effector-function-minimized Fc with LS mutations

How the values were obtained:
[1] = biological target: T1, mouse IL-12; experiment: SPR, antibody captured by anti-human Fc, cytokine injected
Description: (§1) In order to determine binding to TL1A, kinetic assays were conducted at 37° C. using a collection rate of 10 Hz on a Biacore™ T200 instrument (GE Healthcare). […] For the analysis of the p40 binding arm, kinetic assays were conducted at 37° C. using a collection rate of 10 Hz on a Biacore™ 8 K+ instrument (GE Healthcare).

[2] = biological target: T2, rabbit IL-23; experiment: as above
Description: as §1

[3] = biological target: T3, rat IL-12; experiment: as above
Description: as §1

[4] = biological target: T4, rabbit IL-12; experiment: as above
Description: as §1

[5] = biological target: T5, mouse IL-23; experiment: as above
Description: as §1

[6] = biological target: T6, human IL-23; experiment: cell-based or functional assay
[7] = biological target: T7, human IL-12; experiment: cell-based or functional assay

| Binder | binding result [1] | binding result [2] | binding result [3] | binding result [4] | binding result [5] | KIT-225 STAT3 phosphorylation, Human IL-23 IC50 [6] | KIT-225 STAT4 phosphorylation, Human IL-12 IC50 [7] |
| --- | --- | --- | --- | --- | --- | --- | --- |
| B1 | no binding (tested: 200 nM) | no binding (tested: 200 nM) | no binding (tested: 200 nM) | no binding (tested: 200 nM) | no binding (tested: 200 nM) | – | – |
| B2 | – | – | – | – | – | 3.73 nM | 1.11 nM |
